From patent publication US6949366 (Amgen, dated 2005) come the findings set out here.

In assay [1] the target is T1, soluble rat elk/Fc fusion protein (rat; human, UniProt P09759 18-540; P01857 99-330 = IgG part, limits assumed).
T1 construct: extracellular domain;domain: Fc region; The junction between elk and Fc is not described
Nature of the assay: indirect Scatchard binding: elk/Fc titrated on CV1-EBNA-1 cells expressing elk-L, detected with 125I mouse anti-human IgG.

In assay [2] the target is T1, soluble rat elk/Fc fusion protein. In words: indirect Scatchard binding: elk/Fc titrated on CV1-EBNA-1 cells expressing hek-L C6, detected with 125I mouse anti-human IgG; biphasic, second component.
The target is the same in assay [3]. Nature of the assay: indirect Scatchard binding: elk/Fc titrated on CV1-EBNA-1 cells expressing hek-L C6, detected with 125I mouse anti-human IgG; biphasic, first component.
Assay [4] has the same target. In words: indirect Scatchard binding: elk/Fc titrated on CV1-EBNA-1 cells expressing hek-L A2, detected with 125I mouse anti-human IgG; biphasic, second component.
Assay [5] has the same target. In words: indirect Scatchard binding: elk/Fc titrated on CV1-EBNA-1 cells expressing hek-L A2, detected with 125I mouse anti-human IgG; biphasic, first component.
Assay [6] has the same target. In words: indirect Scatchard binding: elk/Fc titrated on CV1-EBNA-1 cells expressing B61; biphasic, first component as the text prints it (differs from the table's cell).
Assay [7] has the same target. In words: indirect Scatchard binding: elk/Fc titrated on CV1-EBNA-1 cells expressing B61, detected with 125I mouse anti-human IgG; biphasic, second component.
Assay [8] shares this target. In words: indirect Scatchard binding: elk/Fc titrated on CV1-EBNA-1 cells expressing B61, detected with 125I mouse anti-human IgG; biphasic, first component (the cell prints 23, the text at paragraph 137 prints 2.3).

T1 sequence (P09759 other isoform, or with tags, fused parts or gaps limits assumed): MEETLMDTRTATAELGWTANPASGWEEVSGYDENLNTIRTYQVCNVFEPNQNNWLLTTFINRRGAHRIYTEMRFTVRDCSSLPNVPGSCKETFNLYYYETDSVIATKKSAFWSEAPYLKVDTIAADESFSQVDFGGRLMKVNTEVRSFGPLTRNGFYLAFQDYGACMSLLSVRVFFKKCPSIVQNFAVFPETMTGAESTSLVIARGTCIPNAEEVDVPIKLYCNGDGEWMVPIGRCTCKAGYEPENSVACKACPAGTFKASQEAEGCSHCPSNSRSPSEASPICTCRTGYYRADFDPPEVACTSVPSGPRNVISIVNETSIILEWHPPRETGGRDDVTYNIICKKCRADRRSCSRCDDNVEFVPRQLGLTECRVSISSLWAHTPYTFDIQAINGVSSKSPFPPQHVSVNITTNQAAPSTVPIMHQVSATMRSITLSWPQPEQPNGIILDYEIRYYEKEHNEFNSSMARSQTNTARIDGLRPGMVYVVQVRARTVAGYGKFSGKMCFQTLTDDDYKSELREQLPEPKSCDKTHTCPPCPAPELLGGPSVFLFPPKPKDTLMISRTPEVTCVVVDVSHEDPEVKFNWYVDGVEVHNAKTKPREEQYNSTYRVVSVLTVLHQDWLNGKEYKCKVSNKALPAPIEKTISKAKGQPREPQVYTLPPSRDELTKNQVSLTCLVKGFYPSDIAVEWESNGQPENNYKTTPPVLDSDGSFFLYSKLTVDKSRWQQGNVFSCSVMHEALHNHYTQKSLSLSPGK

B1: human elk ligand (ligand, UniProt P98172 28-346, looked up)
chain: LAKNLEPVSWSSLNPKFLSGKGLVIYPKIGDKLDIICPRAEAGRPYEYYKLYLVRPEQAAACSTVLDPNVLVTCNRPEQEIRFTIKFQEFSPNYMGLEFKKHHDYYITSTSNGSLEGLENREGGVCRTRTMKIIMKVGQDPNAVTPEQLTTSRPSKEADNTVKMATQAPGSRGSLGDSDGKHETVNQEEKSGPGASGGSSGDPDGFFNSKVALFAAVGAGCVIFLLIIIFLTVLLLKLRKRHRKHTQQRAAALSLSTLASPKGGSGTAGTEPSDIIIPLRTTENNYCPHYEKVSGDYGHPVYIVQEMPPQSPANIYYKV
notes: whole, on cells
In turn, B1 displayed a Ka in assay [1] of 1.08e+09 M⁻¹.

B2: human hek ligand encoded by clone C6 (ligand)
chain: GSSLRHVVYWNSSNPRLLRGDAVVELGLNDYLDIVCPHYEGPGPPEGPETFALYMVDWPGYESCQAEGPRAYKRWVCSLPFGHVQFSEKIQRFTPFSLGFEFLPGETYYYISVPTPESSGQCLRLQVSVCCKERKSESAHPVGSPGES
modifications: GPI anchor at the C-terminus after cleavage (likely on Ser 148 in the filing's numbering; site not determined)
notes: Expressed from the full-length clone C6 cDNA in pDC410 on CV1-EBNA-1 cells and held on the membrane by a GPI anchor; also called hek-L C6; hek ligand C6
Regarding B2, the Ka in assay [2] stood at 5.4e+07 M⁻¹; in assay [3] it was 1.3e+08 M⁻¹.

B3: human hek ligand encoded by clone A2 (ligand)
chain: LLAQGPGGALGNRHAVYWNSSNQHLRREGYTVQVNVNDYLDIYCPHYNSSGVGPGAGPGPGGGAEQYVLYMVSRNGYRTCNASQGFKRWECNRPHAPHSPIKFSEKFQRYSAFSLGYEFHAGHEYYYISTPTHNLHWKCLRMKVFVCCASTSHSGEKPVPTLPQFTMGPNVKINVLEDFEGENPQVPKLEKSIS
modifications: GPI anchor at the C-terminus after cleavage (likely on Ser 194 in the filing's numbering; site not determined)
notes: Expressed from the full-length clone A2 cDNA in pDC410 on CV1-EBNA-1 cells and held on the membrane by a GPI anchor; also called hek-L A2; hek ligand A2
For B3, the Ka was determined as 3.5e+07 M⁻¹ in assay [4] and 2.7e+08 M⁻¹ in assay [5].

B4: human B61 (ligand, UniProt P20827 19-182, looked up)
chain: DRHTVFWNSSNPKFRNEDYTIHVQLNDYVDIICPHYEDHSVADAAMEQYILYLVEHEEYQLCQPQSKDQVRWQCNRPSAKHGPEKLSEKFQRFTPFTLGKEFKEGHSYYYISKPIHQHEDRCLRLKVTVSGKITHSPQAHDNPQEKRLAADDPEVRVLHSIGHS
notes: whole, on cells
For the molecule B4, the Ka in assay [6] worked out at 2.3e+08 M⁻¹; in assay [7], 7e+07 M⁻¹; in assay [8], 2.3e+09 M⁻¹.
